Experimental data as given in article PMC8905165.

Target: GMPCPP microtubules containing 7% rhodamine-tubulin
Assay: single-molecule TIRF microscopy on immobilised microtubules; GMPCPP microtubules held on the coverslip by anti-β-tubulin antibodies, motors in solution (CENP-E483-2mNeon 50 nM, CENP-E483LZ-2mNeon 5 nM, CENP-E754-2mNeon 3.5 nM, CENP-EFL-mNeon 12.5 nM; landing rates at 3.5 nM); 80 mM PIPES pH 6.9, 5 mM MgCl2, 2 mM ATP, 1 mM DTT, oxygen scavenger mix; 30°C; residency time is the decay constant of a single-exponential fit

residency time on the microtubule | landing rate (events µm^−1 min^−1) | Substance
6.36 s |  | CENP-E483LZ-2mNeon (from UniProt Q02224 1-483)
37.1 s | 0.147 | full-length human CENP-E-mNeonGreen, Q02224 1-2701
